Here are results for four molecules from paper PMC9418295, “Characterization of proteins from the 3N5M family reveals an operationally stable amine transaminase” (Applied Microbiology and Biotechnology, 2022).

One may read the stoichiometry N as the number of molecules, sites or subunits per partner or assembly.

Experiment in all cases: native gel or EMSA + SEC; native PAGE without SDS (7.5% separating gel, running buffer 0.05 M Tris, 0.038 M glycine, pH 8.3) against the standards TA-3HMU and TA-3FCR (dimers), catalase and TA-3N5M (tetramers); SEC on HiPrep 16/60 Sephacryl S-100 HR in 50 mM sodium phosphate pH 8.0; subunit size by SDS-PAGE
Background: Mobility shift assays separate free from complexed probe on a gel.

Data set [1] has as its target TA-9, putative transaminase from Burkholderia cepacia (Burkholderia cepacia).
Data set [2] deals with TA-5, putative transaminase from Halomonas elongata (Halomonas elongata).
The target of data set [3] is TA-10, amine transaminase from Burkholderia multivorans (Burkholderia multivorans).
Data set [4] deals with the molecule itself.

Turning to “TA-9, putative transaminase from Burkholderia cepacia (enzyme)”, the stoichiometry N in data set [1] was found to be 4.

For “TA-5, putative transaminase from Halomonas elongata (enzyme)”, the stoichiometry N in data set [2] was found to be 4.

With “TA-10, amine transaminase from Burkholderia multivorans (enzyme)”, the stoichiometry N in data set [3] came to 4.

B1: TA-1, taurine transaminase from Bilophila wadsworthia (enzyme, UniProt Q9APM5 1-456, looked up)
chain: MTYDKAELVALDKKYVWHHLTQHKNFEPAIYVKGEGMRITDIDGKTYLDAVSGGVWTVNVGYGRKEIVDAVAKQMMEMCYFANGIGNVPTIKFSEKLISKMPGMSRVYLSNSGSEANEKAFKIVRQIGQLKHGGKKTGILYRARDYHGTTIGTLSACGQFERKVQYGPFAPGFYEFPDCDVYRSKFGDCADLGVKMAKQLEEVILTVGPDELGAVIVEPMTAGGGILVPPAGYYETIREICDKYELLLIIDEVVCGLGRTGKWFGYQHFNVQPDIVTMAKGVASGYAPISCTVTTEKVFQDFVNDPADTDAYFRDISTFGGCTSGPAAALANIEIIERENLLENCTKMGDRLLEGLKGLMAKHPIIGDVRGKGLFAGIEIVKDRATKEPIAEAVANAMVGAAKQAGVLIGKTSRSFREFNNTLTLCPALIATEADIDEIVAGIDKAFTTVEQKFGL
notes: TA-1, taurine-pyruvate transaminase, Bilophila wadsworthia; codon-optimized gene subcloned with NdeI and BamHI into pET22b or pET28b; Purified and stored with PLP as cofactor; also called taurine-pyruvate transaminase; source: E. coli BL21, purified (Ni-NTA, desalting)
As for B1, the “stoichiometry N” value in data set [4] stood at 4.
